From patent publication US9273320B2, “Method of producing a sweet protein” (NOVOZYMES A/S, priority 2009, dated 2016)

Columns and labels:
[1] = Lamphear et al. 2005; cited from earlier work
[2] = system: test taste panel of six persons; experiment: Sensory evaluation of the sweetness of brazzein compared to sucrose, in 20% skim milk; format: in vivo, human; conditions: 50 mg/l brazzein in 20% skim milk
Excerpt: Sweet protein: The term “sweet protein” as used herein refers to a protein having an intense sweet taste which is suitable for sweetening of food, beverage and/or medication products for human consumption. On weight basis, a sweet protein according to the present invention may be at least 100, preferably at least 200, more preferably at least 500, and even more preferably at least 1,000, times sweeter than sucrose, when compared to a 2% solution of sucrose. For purposes of the present invention, comparison of sweetness may be determined by testing human perception of sweetness of the protein against known controls using varied concentrations of the protein being diluted in water or in an aqueous solution which avoid adsorption on surfaces, such as 20% skim milk, e.g., as described in Example 3 of the present application. A test taste panel of six persons was used to evaluate the brazzein sweetness compared to sucrose. The brazzein batch from Example 2 was diluted 30 fold to a final conc. of 50 mg/l with 20% skim milk in order to avoid adsorption on surfaces. The sweetness was estimated using a standard of 0%, 0.68%, 1.37%, 2.74%, 5.48%, 11.0%, 21.9% (w/v) sucrose diluted in 20% (v/v) skim milk. The sweetness of this 50 mg/l brazzein dilution corresponded to an average sweetness of 2.57% (w/v) sucrose±0.55% sucrose (SD). Thus, the brazzein batch is 510 times sweeter than sucrose on weight basis at the present condition. The sweet taste delay of the brazzein was estimated to be 1.5 sec±1.2 sec (SD).

[3] = system: taste panel of three persons; experiment: pH profile of the sweet taste of brazzein compared to sucrose, in 5 g/l whey protein; format: in vivo, human; conditions: 75 mg/l brazzein
Method: A taste panel of three persons estimated the pH profile of the sweet taste of brazzein compared to sucrose. 5 g/l whey protein (Lacprodan DI-9224, Arla Foods Ingredients) with 0%, 2%, 4%, 6%, 8%, 10%, 12%, 14% and 16% sucrose or 75 mg/l brazzein was adjusted with H3PO4, Na2HPO4 or NaOH to a final pH of […], 4.0, 5.0, 7.0 and 9.0.

[4] = system: test taste panel of three persons; experiment: Sucrose replacement in yoghurt drink, sweetness in 23% Cheasy A38; format: in vivo, human
Method: A test taste panel of three persons was made to evaluate brazzein sweetness in yoghurt drink. The yoghurt product Cheasy A38 (Arla Foods), which contains 0.1% milk fat, 4.3% milk protein, was diluted to a final conc. of 1% milk protein, with sucrose or a solution of brazzein produced in A. oryzae. […] Thus, at the present condition in 23% Cheasy A38, the brazzein batch is 930 times sweeter than sucrose on weight basis.
Furthermore, the sweetness of brazzein and sucrose were additive as 6% sucrose+75 mg/l brazzein, taste like 12.7%±0.6% (SD) sucrose in 23% Cheasy A38.

[5] = background statement; cited from earlier work
[6] = background statement; cited from earlier work; remark: listed apart in the source

Molecule | sweetness relative to the form having an N-terminal pyroglutamate [1] | times sweeter than sucrose on weight basis [2] | sweet taste delay ([2]; SD 1.2 sec) | average sweetness corresponding to sucrose ([2]; panel of six, SD 0.55% sucrose) | sucrose equivalent sweet taste ([3]; pH 2.0) | sucrose equivalent sweet taste ([3]; pH 3.0) | sucrose equivalent sweet taste ([3]; pH 4.0) | sucrose equivalent sweet taste ([3]; pH 5.0) | sucrose equivalent sweet taste ([3]; pH 7.0) | sucrose equivalent sweet taste ([3]; pH 9.0) | times sweeter than sucrose on weight basis ([4]; 75 mg/l brazzein in 23% Cheasy A38) | sweetness corresponding to sucrose ([4]; 75 mg/l brazzein in 23% Cheasy A38, SD 1%) | sweetness of brazzein plus sucrose, tastes like sucrose ([4]; 6% sucrose + 75 mg/l brazzein in 23% Cheasy A38, SD 0.6%) | sweet-taste delay sensation ([4]; in the presence of 6% sucrose, 23% Cheasy A38) | solubility in water [5] | heat stability [6]
53-amino acid form: Natural brazzein form lacking the N-terminal glutamine or pyroglutamate; amino acids 2 to 54 of SEQ ID NO: 2 (QFTTILSIGITVFGLANTGAFAAPQPVPEAYAVSDPEAHPDDFAGMDANQLQK) | twice as sweet |  |  |  |  |  |  |  |  |  |  |  |  |  |  | 
brazzein: Sweet protein of Pentadiplandra brazzeana Baillon or a recombinant form; tested batch secreted from Aspergillus oryzae (SEQ ID NO: 2) (protein) MQFTTILSIGITVFGLANTGAFAAPQPVPEAYAVSDPEAHPDDFAGMDANQLQKREDKCKKVYENYPVSKCQLANQCNYDCKLDKHARSGECFYDEKRNLQCICDYCEY |  | 510 times | 1.5 s | 2.57 % (w/v) sucrose | 6.0 % sucrose | 6.0 % sucrose | 4.3 % sucrose | 6.3 % sucrose | 5.0 % sucrose | 2.7 % sucrose | 930 times | 7 % sucrose | 12.7 % sucrose | almost removed | > 50 mg/mL | can withstand heat
